This assay has as its target SPbCZ5: leucine zipper-GGSG-LucY (from A235)-…-Avi-tag (Geobacillus species). Put plainly: split reporter (BiFC, NanoBiT); LucY protein-fragment complementation: LucY fragments fused to antiparallel leucine zippers, co-expressed in E. cloni 10G (E. coli), 16-18 h at 37°C; whole-cell fluorescence in PBS (excitation 485 nm, emission 528 nm) as percent of CZ (zipper fused to whole LucY).

In turn, “SPbNZ5: His6-LucY (to H234)-GGSGSS-leucine zipper” showed a fluorescence, percent of CZ control (% of CZ control) of 33.

Source of the values: publication PMC4408115.
